{"source": "patent US9803012B2", "about": "“Compositions and methods for regulating SAS1R” (UNIVERSITY OF VIRGINIA PATENT FOUNDATION, priority 2005, dated 2017)", "key": {"M2 oocytes": {"system": "M2 oocytes", "experiment": "Co-localization of rSLLP1 binding sites and SAS1R on oocytes", "type": "cell-based, mouse", "conditions": "oocytes incubated with rSLLP1, probed with SLLP1 and SAS1R antibodies", "experimental": "Zona intact-, zona free oocytes, early embryos and sperm were collected as before (10), blocked and probed with 1st and 2nd antibody and imaged with UV-microscopy. For co-LC studies, gametes were incubated with soluble rSAS1R or rSLLP1, washed, probed with 1st- and 2nd antibodies and imaged with UV-microscopy.\nMouse oocytes were also examined for co-localization of SLLP1 binding sites and SAS1R localization. Oocytes were incubated with gradually increasing concentrations (0-100 μg/ml) of recombinant SLLP1 for 1 h, and then oocytes were washed five times and incubated with guinea pig anti-recombinant SAS1R polyclonal antibody (1:200) and rat anti-recombinant SLLP1 polyclonal antibody (1:200), simultaneously, in 0.1% NGS/media for 1 h at 37° C. and 5% CO2. Oocytes were washed five times and incubated with goat anti-guinea pig/Cy3 Red antibody (1:200) (Jackson ImmunoResearch, PA) and goat anti-rat/FITC Green antibody (1:200) (Jackson ImmunoResearch, PA), in 0.1% NGS/media for 1 h at 37° C. and 5% CO2. Oocytes were washed and mounted in media on glass slides. SLLP1 and SAS1R images were captured separately with MrGrab 1.0 (Carl Zeiss Vision GmbH, Germany) on the Zeiss Standard 18 ultraviolet microscope and were merged digitally to evaluate their respective localizations."}, "cumulus intact oocytes": {"system": "cumulus intact oocytes", "experiment": "In vitro fertilization with cumulus-oocyte complexes (SLLP1 antiserum, recmSLLP1)", "type": "cell-based, mouse", "conditions": "for % Fertilization: oocytes 45 min prior to insemination", "experimental": "Hybrid F1 mice (C57BL/6J×CBA) were used in all experiments. Suspensions of epididymal spermatozoa from sexually mature male mice were prepared for insemination of isolated oocytes. Oocytes were obtained from 28-day-old females superovulated with 10 IU PMSG and 10 IU hCG, injected intraperitoneally 48 h apart. Females were killed 16 h after hCG injection and both oviducts were immediately removed and placed in mineral oil.\nIn vitro fertilization with cumulus intact oocytes was conducted with sperm dispersed from cauda epididymides placed for 5 min in 200 μl drops of fertilization medium under paraffin oil. The sperm suspension was diluted to a concentration of 10^6 sperm/ml in a volume of 200 μl and then incubated for 120 min in a humidified tissue culture incubator (37° C., 5% CO2 in air) to allow capacitation. In the experiments where anti-recmSLLP1 serum was tested, spermatozoa were incubated with varying concentrations of decomplemented (56° C., 30 min) immune or preimmune serum for the last 45 min of capacitation. In the experiments where recmSLLP1 was evaluated, spermatozoa were incubated under standard capacitating conditions.\nCumulus masses were placed in 135 μl drops of fertilization medium (one mass per drop) under paraffin oil and were incubated for 45 min with immune or preimmune serum or in presence or absence of recmSLLP1 prior to insemination. Fifteen μl of the sperm suspension (final concentration: 10^5 sperm/ml) was then added to each cumulus mass drop. Thus, sera or recombinant protein was present in the incubation droplet during gamete interaction. Six hours following insemination oocytes were relocated in 100 μl drops of fertilization medium under mineral oil. Following overnight incubation, eggs were stained in Hoechst dye (10 μg/ml) for 10 min and washed 3 times in fertilization medium. The eggs were then placed in a 5 μl drop of fertilization medium between a microscope slide and an elevated coverslip, and visualized at 160× using light and fluorescence microscopy (Zeiss Axioplan). Two cells embryos were scored as fertilized, while one-celled oocytes were scored as unfertilized."}, "zona-free mouse eggs": {"system": "zona-free mouse eggs", "experiment": "In vitro fertilization with zona-free eggs (sperm-oolemma binding and fusion)", "type": "cell-based", "experimental": "For the sperm-oolemma binding assay, two cauda epididymides were placed in 900 μl drops of fertilization medium under paraffin oil for the dense mass of spermatozoa to flow freely for ˜15 min and then diluted at 1×10^6/ml for 3 h of capacitation. Cumulus oocyte complexes were placed in 200 μl drops of TYH medium under paraffin oil. Cumulus cells were removed by treating the oocytes for 3 min with 1 mg/ml hyaluronidase in TYH medium and then washed 8 times in 50 μl drops. Zona pellucidae were loosened by treating the oocytes with 10 μg/ml chymotrypsin in TYH media for 1 min and loosened zonae were removed by mechanical agitation using a pulled Pasteur pipette. The oocytes were then washed 10 times and allowed to recover from chymotrypsin treatment by incubating in TYH media for 3 h, following which, they were stained with 10 μg/ml Hoechst dye for 10 min, and then gently washed. […]\nTo compare the effects of recmSLLP1 with human and chicken c lysozymes, spermatozoa were first incubated under standard capacitating conditions. Oocytes were pre-incubated for 45 min before insemination with recmSLLP1 (0.1 to 200 μg/ml) or with hSLLP1 (25 μg/ml) or with chicken or human lysozyme (50 μg/ml, 100 μg/ml). Untreated capacitated sperm were then added to the incubation drops containing the treated eggs with a final sperm concentration of 2.5×10^4/ml. Thus, in all the experiments performed the sera, the recombinant protein, or the lysozyme was present in the incubation droplet during gamete interaction. After 30 min of gamete co-incubation, oocytes were gently washed 5 times in TYH medium and placed between a microscope slide and an elevated coverslip and visualized at 160×. Binding to the oocyte was scored by counting the number of bound spermatozoa per oocyte using phase contrast. Fusion with the egg was scored by counting the number of decondensed sperm heads within each oocyte using fluorescence microscopy."}, "recombinant MET": {"biological_target": "T1, recombinant MET (Mus musculus, UniProt Q9CWU5)", "T1 construct": "A complete cDNA encoding 440 amino acids was amplified from cDNA library (Ambion) of mouse ovary and cloned in pET expression vector; His-tag (pET fusion); made in house; host or cells: E. coli BL21", "T1 sequence (Q9CWU5 1-440)": "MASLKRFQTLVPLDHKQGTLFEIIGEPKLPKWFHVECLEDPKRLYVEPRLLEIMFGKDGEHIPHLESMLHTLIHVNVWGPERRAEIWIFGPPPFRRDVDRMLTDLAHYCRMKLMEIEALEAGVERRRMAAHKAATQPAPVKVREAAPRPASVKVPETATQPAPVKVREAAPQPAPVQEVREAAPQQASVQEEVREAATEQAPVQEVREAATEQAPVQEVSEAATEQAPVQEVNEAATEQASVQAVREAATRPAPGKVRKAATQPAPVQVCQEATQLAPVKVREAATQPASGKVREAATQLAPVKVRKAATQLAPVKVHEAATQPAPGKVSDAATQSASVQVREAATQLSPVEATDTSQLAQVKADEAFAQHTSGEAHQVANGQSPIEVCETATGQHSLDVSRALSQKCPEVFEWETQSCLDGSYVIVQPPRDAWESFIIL", "T1 sequence (Q9D9X8 94-221 partner limits assumed)": "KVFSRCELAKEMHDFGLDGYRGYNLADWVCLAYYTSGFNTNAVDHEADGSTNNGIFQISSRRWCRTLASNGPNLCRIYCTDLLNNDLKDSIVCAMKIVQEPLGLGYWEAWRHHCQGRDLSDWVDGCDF", "experiment": "Far-Western analysis of MET and SLLP1", "type": "binding", "conditions": "7 μg recombinant MET, recombinant SLLP1 overlay 2 μg/ml", "experimental": "To that end, 7 μg of recombinant MET was loaded on 12% SDS-PAGE and transferred to nitrocellulose. The membrane was overlaid (OL) with recombinant SLLP1 (2 μg/ml) and probed with anti-SLLP1 monoclonal antibody and secondary antibody."}, "[1]": {"conditions": "recmSLLP1 200 μg/ml (12.5 μM), oocytes pre-incubated"}, "[2]": {"conditions": "relative to the controls, including recombinant egg protein ePAD"}}}
{"molecule": "recmSLLP1: mature mouse SLLP1, residues 94 to 221, six-histidine C terminal tag, expressed in E. coli, about 15 kDa (protein, left off: small tags and cut ends) KVFSRCELAKEMHDFGLDGYRGYNLADWVCLAYYTSGFNTNAVDHEADGSTNNGIFQISSRRWCRTLASNGPNLCRIYCTDLLNNDLKDSIVCAMKIVQEPLGLGYWEAWRHHCQGRDLSDWVDGCDF", "values": [{"measurement": "binding to oocytes", "setting": "M2 oocytes", "result": "binds to oocyte microvillar domain and co-localizes with native SAS1R"}, {"measurement": "difference in percentage of fertilization vs control", "setting": "cumulus intact oocytes; recmSLLP1 50 μg/ml", "result": "no significant difference"}, {"measurement": "% Fertilization", "setting": "cumulus intact oocytes; recmSLLP1 50 μg/ml", "result": 48, "unit": "%"}, {"measurement": "inhibition of fertilization rate vs control", "setting": "cumulus intact oocytes; recmSLLP1 200 μg/ml, P≦0.05", "result": 73, "unit": "%"}, {"measurement": "% Fertilization", "setting": "cumulus intact oocytes; recmSLLP1 200 μg/ml", "result": 12, "unit": "%"}, {"measurement": "sperm-egg binding and fusion", "setting": "zona-free mouse eggs; 50 μg of mouse SLLP1", "result": "maximally inhibited"}, {"measurement": "inhibition of binding", "setting": "zona-free mouse eggs; [1]", "result": 100, "unit": "%"}, {"measurement": "inhibition of fusion", "setting": "zona-free mouse eggs; [1]", "result": 100, "unit": "%"}, {"measurement": "lowest concentration with significant effect on spermatozoa bound to or fused to the egg", "setting": "zona-free mouse eggs; recmSLLP1 0.1-200 μg/ml", "result": 0.1, "unit": "µg/mL"}, {"measurement": "sperm-egg binding, number of sperm bound/egg", "setting": "zona-free mouse eggs; [2]", "result": "essentially completely inhibit"}, {"measurement": "sperm-egg fusion", "setting": "zona-free mouse eggs; [2]", "result": "essentially completely inhibit"}, {"measurement": "binding to purified MET", "setting": "recombinant MET", "result": "strong signal"}]}
